Type in all cases: in vivo
The test system of series [1] is NONcNZO-10 polygenic obese mice. In words: Non-fasting blood triglyceride level in NONcNZO-10 mice (Example 4, Table 18). An excerpt: (§1) Test animals: 40 male NONcNZO-10 polygenic obese mice obtained from Jackson Laboratory at 10 weeks of age weighing in the range of 26-32 g were used in this study.
(§2) Administration of NT-4/5: NT-4/5 was produced in E. coli as descried in U.S. Pat. No. 6,184,360. The mice were divided into 6 groups of equivalent body weight and baseline blood glucose distribution (6-7 mice per group). […] A “paired-fed” control group received daily injection of vehicle, but were only fed with the same amount of food the 3 mg/kg group consumed the previous day. On the day when the treatment started (day 1), a baseline blood samples were collected for measuring glucose and triglyceride. Triglyceride level was measured on day 10. At the end of the study (day 12), a terminal blood sample was collected to determine glucose, triglyceride, electrolytes (Na, K, Cl), testoterone, corticosterone, thyroid hormone (total T4) and thyroid stimulating hormone (TSH) levels. Electrolytes, free testosterone, T4 and TSH levels of serum samples were measured by AniLytics (Gaithesburg, M.D) according to the standard protocols employed by the vendor. Other analytes were measured as described above. Body weight, food intake were monitored 5 days per week through out the entire study. Daily water intake was measured from day 5 through day 7.

The next series concerns DIO mice. The series is described as follows: Body weight, food intake, body composition and bone density (PIXImus) in DIO mice (Example 9). An excerpt: Test animals: Mice with diet induced obesity (DIO) were used in this study. 29 male C57BL/6J mice were weaned at 4 weeks of age. Immediately after weaning they were put on 58% high fat diet (D12331i, Research Diet) through out the study. The DIO mice at 13 weeks of age weighing in the range of 28-40 g were used in this study.
Administration of NT-4/5: NT-4/5 was obtained from Genentech Inc. or produced as described in U.S. Pat. No. 6,184,360. The mice were divided into 2 groups of equivalent body weight distribution (8 mice per group). The mice were acclimated individually in the Comprehensive Cage Monitoring System (CCMS, Columbus Instruments) for 2 days, in preparation for the indirect calorimetry, before the treatment started. Each group received 5 daily subcutaneous doses of either vehicle or 10 mg/kg of NT-4/5, respectively. Body weight and food intake were monitored 5 days per week through out the entire study. The CCMS monitoring and data analysis of oxygen consumption and carbon dioxide production were carried out according published and commonly accepted protocols as described at website of Jackson Laboratory. The body composition, i.e. percent lean body mass, fat content, and bone density was determined the day both before treatment started (day 0) and the final day of treatment (day 5) with a PIXImus Mouse Densitometer (GE Lunar Medical Systems, Madison, Wis.) using software version 1.46. Brommage et al., Am. J. Physiol. Endocrinol. Metab. 285: 454-459 (2003).

For series [2], the system named is NONcNZO-10 polygenic obese mice. In words: Pegylated NT-4/5 cysteine mutant on body weight, food intake, glucose, triglyceride in NONcNZO-10 mice (Example 6). Here is the method: Test animals: 30 male NONcNZO-10 polygenic obese mice at 10 weeks of age weighing in the range of 27-32 g were used in this study.
Administration of NT-4/5 and pegylated NT-4/5: The mice were divided into 4 groups of equivalent body weight distribution (7-8 mice per group). Each group received on the first day (day 1) of the study one and the only dose of either vehicle alone, 1 mg/kg of NT-4/5 or 1 mg/kg of PEG-NT4-S50C, respectively. A final group received a daily subcutaneous dose of 1 mg/kg of NT-4/5 from day 1 to day 5, then from day 7 to day 9. On day 9 after the treatment started, blood samples were collected to determine serum glucose and triglyceride levels. Body weight and food intake were monitored 5 days a week through out the entire study.

In series [3] the test system is NONcNZO-10 polygenic obese and diabetic mice. In words: Non-fasting blood glucose and HbA1c in polygenic obese and diabetic mice NONcNZO-10 (Example 3). The conditions noted are these: 2 or 10 mg/kg s.c. daily; dose dependent. An excerpt: Test animals: 19 male NONcNZO-10 polygenic obese and diabetic mice from Jackson Laboratory (See Leiter et al., Diabetes 53 (Suppl. 1): S4-S11, 2004) at 9 weeks of age weighing in the range of 28-35 g were used in this study.
Administration of NT-4/5: NT-4/5 was obtained from Genentech Inc.
The mice were divided into 3 groups of equivalent body weight and baseline glucose distribution (6-7 mice per group). […] Seven days before starting the treatment (day −7), blood samples were collected from the mice as described previously for the determination of baseline levels of blood glucose and triglyceride. After the treatment started, blood samples were collected weekly to determine glucose and triglyceride levels as described in previous examples. Body weight and food intake were monitored 5 days a week through out the entire study.

In series [4] the test system is NONcNZO-10 polygenic obese mice. The series is described as follows: Water intake, electrolyte balance and endocrine functions in NONcNZO-10 mice (Example 4).
Description: as §1, §2
The effects of NT-4/5 treatment on water intake, electrolyte balance and endocrine functions were also tested. Water intake was measured from day 5 through 7. The electrolyte (i.e., Na, K, and Cl) concentrations were measured using the terminal blood samples taken on day 12. […] One way ANOVA followed by Dunnett's post-test were used for statistical analysis.

Series [5] is described as follows: Serum half life after single subcutaneous dose in db/db mice (Example 7). The settings on record: single subcutaneous dose of 4 mg/kg in db/db mice; estimated. An excerpt: In addition, pegylated NT-4/5 has extended half life in vivo.
Setting [6] is: single subcutaneous injection of 1 mg/kg, day 9.

B1: NT-4/5: mature human neurotrophin-4/5 (SEQ ID NO:1), obtained from Genentech or produced in E. coli (protein, listed as Homo sapiens)
chain: GVSETAPASRRGELAVCDAVSGWVTDRRTAVDLRGREVEVLGEVPAAGGSPLRQYFFETRCKADNAEEGGPGAGGGGCRGVDRRHWVSECKAKQSYVRALTADAQGRVGWRWIRIDTACVCTLLSRTGRA
Take B1: the “non-fasting blood triglyceride levels” value in series [1] (daily subcutaneous injection) is recorded as “significantly reduced”. Also, the “non-fasting blood triglyceride level” value in series [1] (lowest dose 0.1 mg/kg/day s.c.) is “significantly reduced”. Moreover, in the series on DIO mice (10 mg/kg s.c. daily), the “body fat content” value is “significantly reduced”, the “body weight” value is listed as “significantly reduced”, the “food intake” value was “significantly reduced” and the “lean body mass” value is recorded as “but not the lean body mass”. The “Bone mineral density (mean±SEM)” value in the series with DIO mice (day 0, 10 mg/kg group) amounted to 0.5235±0.0158 g/cm^2. Besides, the “Bone mineral density (mean±SEM)” value with DIO mice (day 5, 10 mg/kg s.c. daily) is 0.5452±0.0142 g/cm^2. Besides, in the series on DIO mice (day 5, P<0.05), the “bone density versus vehicle” value was “significantly different from that of the vehicle”. Moreover, the triglyderide level reduction result in series [2] (daily dose of 1 mg/kg, on average, P<0.01) is “about 50%”. The “blood glucose level reduction” value in series [2] (daily dose of 1 mg/kg, on average, P<0.05) is on record as “about 50%”. Further, in series [2] (daily injection of 1 mg/kg), the “Daily food intake” value is “without affecting daily food intake” and the “body weight” value is “significantly reduced body weight”. Further, in series [2] (setting [6]), the “blood glucose level” value is recorded as “did not significantly reduce” and the “triglyceride level” value is recorded as “did not significantly reduce”. Besides, in series [3], the “long term glycemic control, HbA1c levels” value was “improved long term glycemic control” and the “non-fasting blood glucose level” value is recorded as “reduced non-fasting blood glucose level”. Further, in series [4] (0.1-3 mg/kg/day, day 12), the serum corticosterone levels result is listed as “did not significantly change” and the testoterone levels entry is “did not significantly change”. The “thyroid stimulating hormone (TSH) level” value in series [4] (compared to the vehicle control) is on record as “no change”. The “Total thyroxine T4 reduction” value in series [4] (daily 3 mg/kg, still within normal range) is reported as “about 33%”. In series [4] (day 5 through 7, 0.1, 0.3, 1 and 3 mg/kg), the “treatment groups showing a statistically significant difference from vehicle in water intake” value is “None”. For the same molecule, the serum half life in series [5] was 41 to 52 min.

These data come from patent US20090203610A1, “METHODS OF TREATING OBESITY OR DIABETES USING NT-4/5” (RINAT NEUROSCIENCE CORPORATION, priority 2004, published 2009).
